Experimental data: patent US20200247894A1 (Regeneron, published 2020)

T1: Human IL2Rγ extracellular domain expressed with a C-terminal myc-myc-hexahistidine tag (human)
T1 construct: also called hIL-2Rg-MMH; hIL-2RG-MMH
T1 chain: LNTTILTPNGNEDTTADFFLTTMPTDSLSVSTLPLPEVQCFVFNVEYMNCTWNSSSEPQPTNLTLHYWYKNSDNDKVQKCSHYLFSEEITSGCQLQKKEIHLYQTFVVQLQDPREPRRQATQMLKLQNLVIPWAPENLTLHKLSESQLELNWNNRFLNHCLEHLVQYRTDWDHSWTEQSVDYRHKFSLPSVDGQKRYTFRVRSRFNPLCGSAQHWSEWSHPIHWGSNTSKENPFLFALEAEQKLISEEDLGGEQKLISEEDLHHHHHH

T2: Macaca fascicularis IL2Rγ extracellular domain expressed with a C-terminal myc-myc-hexahistidine tag (Macaca fascicularis)
T2 construct: also called mfIL-2Rg-MMH; mfIL-2RG-MMH
T2 chain: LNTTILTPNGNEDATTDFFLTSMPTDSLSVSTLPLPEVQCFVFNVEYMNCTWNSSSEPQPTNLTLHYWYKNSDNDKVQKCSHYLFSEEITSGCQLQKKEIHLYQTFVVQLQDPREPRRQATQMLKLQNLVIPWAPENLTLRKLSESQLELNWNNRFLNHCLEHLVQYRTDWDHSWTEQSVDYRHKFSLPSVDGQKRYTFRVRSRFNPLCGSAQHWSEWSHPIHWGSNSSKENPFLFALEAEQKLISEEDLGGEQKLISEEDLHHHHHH

T3: Macaca fascicularis IL2Rγ extracellular domain expressed with a C-terminal myc-myc-hexahistidine tag (Macaca fascicularis)
T3 construct: also called mfIL-2Rg-MMH; mfIL-2RG-MMH
T3 chain: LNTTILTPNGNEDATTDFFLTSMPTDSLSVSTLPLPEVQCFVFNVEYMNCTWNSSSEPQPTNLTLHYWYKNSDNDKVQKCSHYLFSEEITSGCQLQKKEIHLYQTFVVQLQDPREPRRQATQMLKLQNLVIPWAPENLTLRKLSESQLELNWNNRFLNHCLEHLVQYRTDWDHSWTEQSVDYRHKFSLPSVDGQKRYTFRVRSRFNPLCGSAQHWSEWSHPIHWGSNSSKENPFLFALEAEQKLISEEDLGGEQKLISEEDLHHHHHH

T4: Human IL2Rγ extracellular domain expressed with a C-terminal myc-myc-hexahistidine tag (human)
T4 construct: also called hIL-2Rg-MMH; hIL-2RG-MMH
T4 chain: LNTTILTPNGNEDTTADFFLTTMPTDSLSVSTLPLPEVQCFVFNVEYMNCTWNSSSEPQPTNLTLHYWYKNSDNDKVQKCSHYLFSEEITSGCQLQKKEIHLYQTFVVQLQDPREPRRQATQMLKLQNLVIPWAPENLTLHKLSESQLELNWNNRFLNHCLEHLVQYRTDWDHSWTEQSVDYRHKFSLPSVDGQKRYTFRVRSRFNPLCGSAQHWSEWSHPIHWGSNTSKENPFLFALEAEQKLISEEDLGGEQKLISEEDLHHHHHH


How the values were obtained:
[1] = target: T1, Human IL2Rγ extracellular domain …; assay: SPR, captured mAb, 25C, dissociation pH 7.4
Experimental: (§1) The dissociation rate constant (kd) for binding of IL-2Rγ reagents to purified anti-IL2Rγ monoclonal antibodies was determined using a real-time surface plasmon resonance based Biacore 4000 biosensor platform. […] The CM5 Biacore sensor surface derivatized by amine coupling with monoclonal mouse anti-human Fc antibody (GE, Catalog # BR-1008-39) was used to capture anti-IL2Rγ monoclonal antibodies expressed with human IgG4 Fc. All the IL2Rγ reagents were expressed with a C-terminal myc-myc-hexahistidine tag (subsequently referred to with a -MMH suffix). […] The dissociation of bound IL-2Rg-MMH was performed in PBS-T-pH7.4 or PBS-T-pH6.0 running buffers for 6 minutes.
(§2) Dissociation rate constants (kd) in two running buffers were determined by fitting the real-time binding sensorgrams to a 1:1 binding model using Scrubber 2.0c curve-fitting software. Values of dissociation rate for […] mAb binding to hIL-2RG-MMH and mfIL-2RG-MMH at 25° C. and 37° C. in PBS-T-pH7.4 and PBS-T-pH6.0 is shown in Table 2-1 through Table 2-8.

[2] = target: T2, Macaca fascicularis IL2Rγ extracellular …; assay: SPR, captured mAb, 25C, dissociation pH 7.4
Experimental: as §1, §2

[3] = target: T1, Human IL2Rγ extracellular domain …; assay: SPR, captured mAb, 37C, dissociation pH 6.0
Experimental: as §1, §2

[4] = target: T1, Human IL2Rγ extracellular domain …; assay: SPR, captured mAb, 25C, dissociation pH 6.0
Experimental: as §1, §2

[5] = target: T2, Macaca fascicularis IL2Rγ extracellular …; assay: SPR, captured mAb, 25C, dissociation pH 6.0
Experimental: as §1, §2

[6] = target: T1, Human IL2Rγ extracellular domain …; assay: SPR, captured mAb, 37C, dissociation pH 7.4
Experimental: as §1, §2

[7] = target: T3, Macaca fascicularis IL2Rγ extracellular …; assay: SPR Biacore 4000, mAb captured by anti-hFc, HBS-ET, 25C
Experimental: (§3) Equilibrium dissociation constants (KD values) for IL-2Rγ binding to purified anti-IL2Rγ monoclonal antibodies were determined using a Biacore 4000 instrument equipped with a real-time surface plasmon resonance biosensor. All binding studies were performed in 10 mM HEPES, 150 mM NaCl, 3 mM EDTA, and 0.05% v/v Surfactant Tween-20, pH 7.4 (HBS-ET) running buffer at 25° C. and 37° C. The Biacore sensor surface was first derivatized by amine coupling with a monoclonal mouse anti-human Fc antibody (GE, # BR-1008-39) to capture anti-IL2Rγ monoclonal antibodies.
(§4) The dissociation of monoclonal antibody bound IL2Rγ reagents were monitored for 8-10 minutes in HBS-ET running buffer. Kinetic association (kₐ) and dissociation (kd) rate constants were determined by fitting the real-time sensorgrams to a 1:1 binding model using Scrubber 2.0c curve fitting software. Binding dissociation equilibrium constants (KD) and dissociative half-lives (t_{1/2}) were calculated from the kinetic rate constants as: […]

[8] = target: T4, Human IL2Rγ extracellular domain …; assay: as above
Experimental: as §3, §4

[9] = target: T4, Human IL2Rγ extracellular domain …; assay: SPR Biacore 4000, mAb captured by anti-hFc, HBS-ET, 37C
Experimental: as §3, §4

[10] = target: T3, Macaca fascicularis IL2Rγ extracellular …; assay: SPR Biacore 4000, mAb captured by anti-hFc, 37C, dissociation in PBS-T pH 6.0
Experimental: as §1, §2

[11] = target: T3, Macaca fascicularis IL2Rγ extracellular …; assay: SPR Biacore 4000, mAb captured by anti-hFc, 37C, dissociation in PBS-T pH 7.4
Experimental: as §1, §2

| Binder | 100 nM Ag Bound (RU) [1] [RU] | koff [1] [s⁻¹] | t1/2 [1] [min] | 100 nM Ag Bound (RU) [2] [RU] | koff [2] [s⁻¹] | t1/2 [2] [min] | 100 nM Ag Bound (RU) [3] [RU] | koff [3] [s⁻¹] | t1/2 [3] [min] | 100 nM Ag Bound (RU) [4] [RU] | koff [4] [s⁻¹] | t1/2 [4] [min] | 100 nM Ag Bound (RU) [5] [RU] | koff [5] [s⁻¹] | t1/2 [5] [min] | 100 nM Ag Bound (RU) [6] [RU] | koff [6] [s⁻¹] | t1/2 [6] [min] | 100 nM Ag Bound [7] [RU] | Kd [7] [nM] | also measured |
| --- | --- | --- | --- | --- | --- | --- | --- | --- | --- | --- | --- | --- | --- | --- | --- | --- | --- | --- | --- | --- | --- |
| H4H12926P2 (antibody, human IgG4 S228P, kappa, V domains shown, anti-IL2Rgamma mAb expressed with human IgG4 Fc) VH: QVQLQQSGPGLVKPSQTLSLTCAISGDSVSSNIAAWNWIRLSPSRGLEWLGRTFFRSTWFYDYSLSVKGRITINPDTSKNQFSLHLNSVTPEDAAVYYCARTGRRWSLDYWGQGTLVTVSS VL: not shown | 29 | 0.0133 | 0.9 | 43 | 0.00782 | 1.5 | 14 | 0.0312 | 0.4 | 24 | 0.0297 | 0.4 | 32 | 0.0185 | 0.6 | 14 | 0.0308 | 0.4 | – | – | – |
| H4H13541P (antibody, human IgG4 S228P, kappa, V domains shown, anti-IL2Rγ monoclonal antibody expressed with human IgG4 Fc) VH: EVQLVESGGGVVRPGGSLRLSCAASGFIFDDYDMSWVRQPPGRGLEWVSGIDWFGGTRGYADSMKGRFTISRDNAKNSLYLQMNSLRVEDTAFYYCARGGAIVGAVTPFDYWGQGTLVTVSS VL: DIQMTQSPSSLSASVGNRVTLSCRASQSINTYLSWYQQRPGKAPKLLIYAASSLQSGVPSRFSGSGAGTDFTLTISSLQPEDFATYYCQQSYSAPLTFGGGTKVEIKR | – | – | – | – | – | – | – | – | – | – | – | – | – | – | – | – | – | – | 82 | 1.85 | koff [7]: 0.000315 s⁻¹; kon [7]: 170000 M⁻¹ s⁻¹; t1/2 [7]: 37 min; 100 nM Ag Bound [8]: 72 RU; Kd [8]: 2.41 nM; koff [8]: 0.000252 s⁻¹; kon [8]: 105000 M⁻¹ s⁻¹; t1/2 [8]: 46 min; 100 nM Ag Bound [9]: 103 RU; Kd [9]: 5.01 nM; koff [9]: 0.00078 s⁻¹; kon [9]: 156000 M⁻¹ s⁻¹; t1/2 [9]: 15 min; 100 nM Ag Bound (RU) [10]: 91 RU; koff [10]: 0.0015 s⁻¹; t1/2 [10]: 8 min; 100 nM Ag Bound (RU) [11]: 100 RU; koff [11]: 0.000512 s⁻¹; t1/2 [11]: 23 min |
| H4H12924P2 (antibody, human IgG4 S228P, kappa, V domains shown, anti-IL2Rgamma mAb expressed with human IgG4 Fc) VH: EVQLVESGGGLVQPGRSLRLSCAASGFTLEDYAMHWVRQAPGKGLEWVSGISWNRGSTGYADSVKGRFTISRDNAKNSLYLQMTSLRAEDTALYYCAKGFYSMDVWGQGTTVTVSS VL: not shown | 124 | 0.000479 | 24 | 130 | 0.000385 | 30 | 133 | 0.0143 | 0.8 | 136 | 0.00367 | 3 | 131 | 0.00305 | 4 | 133 | 0.00302 | 4 | – | – | – |
| H4H12924P2 (antibody, human IgG4 S228P, kappa, V domains shown, anti-IL2Rγ monoclonal antibody expressed with human IgG4 Fc) VH: EVQLVESGGGLVQPGRSLRLSCAASGFTLEDYAMHWVRQAPGKGLEWVSGISWNRGSTGYADSVKGRFTISRDNAKNSLYLQMTSLRAEDTALYYCAKGFYSMDVWGQGTTVTVSS VL: not shown | – | – | – | – | – | – | – | – | – | – | – | – | – | – | – | – | – | – | 73 | 6.58 | koff [7]: 0.00165 s⁻¹; kon [7]: 251000 M⁻¹ s⁻¹; t1/2 [7]: 7 min; 100 nM Ag Bound [8]: 78 RU; Kd [8]: 5.38 nM; koff [8]: 0.00174 s⁻¹; kon [8]: 322000 M⁻¹ s⁻¹; t1/2 [8]: 7 min; 100 nM Ag Bound [9]: 26 RU; Kd [9]: 18 nM; koff [9]: 0.0157 s⁻¹; kon [9]: 871000 M⁻¹ s⁻¹; t1/2 [9]: 0.7 min; 100 nM Ag Bound (RU) [10]: 126 RU; koff [10]: 0.0124 s⁻¹; t1/2 [10]: 0.9 min; 100 nM Ag Bound (RU) [11]: 133 RU; koff [11]: 0.00267 s⁻¹; t1/2 [11]: 4 min |
